Reference: publication PMC4856396, “The Staphylococcus aureus Global Regulator MgrA Modulates Clumping and Virulence by Controlling Surface Protein Expression”

T1: MgrA (Staphylococcus aureus LAC, UniProt P0C1S0 1-147)
T1 sequence: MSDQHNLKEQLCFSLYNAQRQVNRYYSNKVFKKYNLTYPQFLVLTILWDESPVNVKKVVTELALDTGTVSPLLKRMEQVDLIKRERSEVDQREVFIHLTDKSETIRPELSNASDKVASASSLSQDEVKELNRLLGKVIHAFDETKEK

B1: Pebh probe (ebh probe2) (dsDNA)
DNA 1: GAGCATAAATAAATTGTTCAACACATAGTTGTAATGTGTTTCAATACTTT
DNA 2: AAAGTATTGAAACACATTACAACTATGTGTTGAACAATTTATTTATGCTC
B2: ebh specific competitor SP (dsDNA)
DNA 1: B1 DNA 1
DNA 2: B1 DNA 2
B3: non-specific competitor NSP (sraP probe 6) (dsDNA)
DNA 1: CTGGAAAAAATTGGGTAAAATCCGGAATTAAAGAAATAGAAATGTTCAAA
DNA 2: TTTGAACATTTCTATTTCTTTAATTCCGGATTTTACCCAATTTTTTCCAG
B4: sraP P2 probe (sraP probe5) (dsDNA)
DNA 1: TTTGTATCAAAAAAGAGTTGTATTAAATTGAATAGTGGCATATATTATAA
DNA 2: TTATAATATATGCCACTATTCAATTTAATACAACTCTTTTTTGATACAAA
B5: sraP specific competitor SP (dsDNA)
DNA 1: B4 DNA 1
DNA 2: B4 DNA 2
B6: sraP mutated competitor MP (sraP probe5 mut) (dsDNA)
DNA 1: TTTGTAGATGTCAAGCACCTCATTAAATTGAATAGTGGCATATATTATAA
DNA 2: TTATAATATATGCCACTATTCAATTTAATGAGGTGCTTGACATCTACAAA

What was measured:
MgrA [1] = target: T1, MgrA; test: EMSA; 0-2 uM MgrA, 50 nM probe; conditions: protein: recombinant; tags: His6-MBP removed by Tev cleavage (untagged; possible linker residues); chain copies: 2; label: IRDye 700 at one end (HC487); blunt
MgrA [2] = target: T1, MgrA; test: competition; 10-fold excess over labeled Pebh; conditions: protein: recombinant; tags: His6-MBP removed by Tev cleavage (untagged; possible linker residues); chain copies: 2; blunt
MgrA [3] = target: T1, MgrA; test: EMSA; 0-2 uM MgrA, 50 nM probe; dose-dependent; conditions: protein: recombinant; tags: His6-MBP removed by Tev cleavage (untagged; possible linker residues); chain copies: 2; label: IRDye 700 on HC346; blunt
MgrA [4] = target: T1, MgrA; test: competition; 10-fold excess over labeled sraP P2 probe; conditions: protein: recombinant; tags: His6-MBP removed by Tev cleavage (untagged; possible linker residues); chain copies: 2; blunt

| Binder | binding result (MgrA [2]) | binding result (MgrA [4]) | further results |
| --- | --- | --- | --- |
| B1 |  |  | binding result (MgrA [1]): binds |
| B2 | binds |  |  |
| B3 | no binding |  |  |
| B4 |  |  | binding result (MgrA [3]): binds |
| B5 |  | binds |  |
| B6 |  | no binding |  |
